Measurements: US20150232560A1 (Hoffmann-La Roche, published 2015)
Values joined by “and” are separate entries in the source; they are usually repeats but may differ in a detail not shown here. Equal entries are not always repeated.

How the values were obtained:
[1] = molecular target: T1, IGF-1R(1340-1366)[1346-pTyr]amid (phosphotyrosine at 1346; C-terminal amide); assay: SPR (BIAcore 3000), ss-FABs hybridized on biotinylated T40-Bi linker on SA chip, peptide in solution; T40-Bi linker (linker 10)
T1 construct: Used as the analyte free in solution; also called pIGF-1R peptide (free in solution); phosphorylated IGF-1R peptide
T1 peptide: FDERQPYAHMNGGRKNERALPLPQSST

[2] = molecular target: T1, IGF-1R(1340-1366)[1346-pTyr]amid; assay: SPR (BIAcore 3000, SA sensor, 25 C): ss-FABs hybridized on the surface-captured biotinylated T40-Bi ss-DNA linker; peptide as analyte in solution
From the text: (§1) FIG. 17 Schematic drawing of the BIAcore assay, presenting the complex s on the sensor surface. On Flow Cell 1 (=FC1) (not shown) amino-PEO-biotin was captured. On FC2, FC3 and FC4 bivalent binding agents with increasing linker length were immobilized. Analyte 1: IGF-1R-peptide containing the M-1.4.168 ss-FAB epitope (thin line)-the M-8.1.2 ss-FAB phospho-epitope is not present, because this peptide is not phosphorylated; analyte 2: pIGF-1R peptide containing the M-8.1.2 ss-FAB phospho-epitope (P) and the M-1.4.168 ss-FAB epitope (thin line). Analyte 3: pINR peptide, containing the cross reacting M-8.1.2 ss-FAB phospho-epitope, but not the epitope for M-1.4.168.
(§2) The dissociation was monitored at 50 μl/min for 5.3 min. The system was regenerated after each concentration step with a 12 sec pulse of 250 mM NaOH and was reloaded with ss-FAB ligand.

[3] = molecular target: T2, IGF-1R(1340-1366)amid (C-terminal amide); assay: as above
T2 construct: Used as the analyte free in solution; also called IGF-1R peptide (free in solution); non-phosphorylated IGF-1R peptide
T2 peptide: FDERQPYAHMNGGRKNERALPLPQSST
From the text: as §1, §2

[4] = molecular target: T1, IGF-1R(1340-1366)[1346-pTyr]amid; assay: SPR (BIAcore 3000), ss-FABs hybridized on biotinylated T0 linker on SA chip, peptide in solution; T0 linker (no spacer; linker 16 as printed)
[5] = molecular target: T1, IGF-1R(1340-1366)[1346-pTyr]amid; assay: SPR (BIAcore 3000, SA sensor, 25 C): ss-FABs hybridized on the surface-captured biotinylated T0-Bi ss-DNA linker; peptide as analyte in solution
[6] = molecular target: T2, IGF-1R(1340-1366)amid; assay: as above
[7] = molecular target: T3, INR(1355-1382)[1361-pTyr]amid (human, phosphotyrosine at 1361; C-terminal amide); assay: SPR (BIAcore 3000, SA sensor, 25 C): single ss-FAB hybridized on the surface-captured biotinylated T40-Bi ss-DNA linker; peptide as analyte in solution
T3 construct: Used as the analyte free in solution; also called pINR peptide; phosphorylated insulin receptor peptide (free in solution)
T3 peptide: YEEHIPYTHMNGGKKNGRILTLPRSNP

B1: T40 dual binding agent: ss-FAB 8.1.2 and ss-FAB 1.4.168 on the biotinylated T40-Bi 77-mer ss-DNA-Linker (linker 10) (bispecific antibody, V domains shown)
VH 1: QCDVKLVESGGGLVKPGGSLKLSCAASGFTFSDYPMSWVRQTPEKRLEWVATITTGGTYTYYPDSIKGRFTISRDNAKNTLYLQMGSLQSEDAAMYYCTRVKTDLWWGLAYWGQGTLVTVSA
VL 1: QLVLTQSSSASFSLGASAKLTCTLSSQHSTYTIEWYQQQPLKPPKYVMELKKDGSHTTGDGIPDRFSGSSSGADRYLSISNIQPEDESIYICGVGDTIKEQFVYVFGGGTKVTVLG
VH 2: EVQLQQSGPALVKPGASVKMSCKASGFTFTSYVIHWVKQKPGQGLEWIGYLNPYNDNTKYNEKFKGKATLTSDRSSSTVYMEFSSLTSEDSAVYFCARRGIYAYDHYFDYWGQGTSLTVSS
VL 2: QIVLTQSPAIMSASPGEKVTLTCSASSSVNYMYWYQQKPGSSPRLLIYDTSNLASGVPVRFSGSGSVTSYSLTISRMEAEDAATYYCQQWSTYPLTFGAGTKLELK
modifications: ss-DNA on a hinge cysteine
notes: Assembled on the SA chip on the biotinylated linker T20-(Biotin-dT)-T20; also called T40-bi complex
Kd [1]: 0.01 nM
Kd [2]: 0.0125 nM
Kd [3]: 0.973 nM and 1 nM
t1/2 diss [3]: 4.3 min

B2: T0 dual binding agent: ss-FAB 8.1.2 and ss-FAB 1.4.168 on the biotinylated T0-Bi 37-mer ss-DNA-Linker (linker 17) (bispecific antibody, V domains shown)
VH 1: B1 VH 1
VL 1: B1 VL 1
VH 2: B1 VH 2
VL 2: B1 VL 2
modifications: ss-DNA on a hinge cysteine
notes: The protein parts are the same in both cases
Kd [4]: 0.03 nM
Kd [5]: 0.0344 nM
Kd [6]: 1.2 nM and 1 nM
t1/2 diss [6]: 5 min

B3: ss-FAB' 1.4.168 (Fab, V domains shown)
VH: DVKLVESGGGLVKPGGSLKLSCAASGFTFSDYPMSWVRQTPEKRLEWVATITTGGTYTYYPDSIKGRFTISRDNAKNTLYLQMGSLQSEDAAMYYCTRVKTDLWWGLAYWGQGTLVTVSA
VL: B1 VL 1
modifications: 17mer ss-DNA comprising SEQ ID NO: 05 with fluorescein, coupled via maleimide to a cysteine of the FAB' hinge region
notes: FAB' made from the murine monoclonal antibody M-1.4.168 by pepsin cleavage and cysteamine reduction; the constant parts are not; also called ss-FAB 1.004.168; fluorescein-ss-FAB' 1.4.168
binding result [7]: no binding
